We go through one variant from IntAct's records for PubMed 17721446.

First the molecules themselves.
B1: DNA repair protein RAD9 (Saccharomyces cerevisiae), P14737 (parent)
chain: MSGQLVQWKSSPDRVTQSAIKEALHSPLADGDMNEMNVPVDPLENKVNSTNIIEGSPKANPNPVKFMNTSEIFQKSLGLLDESPRHDDELNIEVGDNDRPNANILHNERTPDLDRIANFFKSNRTPGKENLLTKYQSSDLEDTPLMLRKKMTFQTPTDPLEQKTFKKLKSDTGFCYYGEQNDGEENASLEVTEADATFVQMAERSADNYDCALEGIVTPKRYKDELSKSGGMQDERVQKTQIMISAESPNSISSYDKNKITGNGRTTRNVNKVFNNNEDNIGAIEEKNPVKKKSENYSSDDLRERNNQIIQSNESEEINELEKNLNVSGRENDVNNLDIDINSAVSGTPSRNNAEEEMYSSESVNNREPSKKWIFRYSKDKTENNSNRSTQIVNNPRTQEMPLDSISIDTQPLSKSFNTETNNELETQIIVSSLSQGISAQKGPVFHSTGQTEEIKTQIINSPEQNALNATFETPVTLSRINFEPILEVPETSSPSKNTMSKPSNSSPIPKEKDTFNIHEREVETNNVFSNDIQNSSNAATRDDIIIAGSSDFNEQKEITDRIYLQLSGKQISDSGSDETERMSPNELDTKKESTIMSEVELTQELPEVEEQQDLQTSPKKLVVEEETLMEIKKSKGNSLQLHDDNKECNSDKQDGTESLDVALIEHESKGQSSELQKNLMQLFPSESQEIIQNRRTIKRRQKDTIEIGEEEENRSTKTSPTKHLKRNSDLDAASIKREPSCSITIQTGETGSGKDSKEQSYVFPEGIRTADNSFLSKDDIIFGNAVWCQYTWNYKFYPGILLEVDTNQDGCWIYFETGRSLTKDEDIYYLDIRIGDAVTFDGNEYVVVGLECRSHDLNIIRCIRGYDTVHLKKKNASGLLGKRTLIKALSSISLDLSEWAKRAKIILEDNEKNKGDAYRYLRHPIRGRKSMTNVLSPKKHTDDEKDINTHTEVYNNEIESSSEKKEIVKKDSRDALAEHAGAPSLLFSSGEIRTGNVFDKCIFVLTSLFENREELRQTIESQGGTVIESGFSTLFNFTHPLAKSLVNKGNTDNIRELALKLAWKPHSLFADCRFACLITKRHLRSLKYLETLALGWPTLHWKFISACIEKKRIVPHLIYQYLLPSGESFRLSLDSPSKGGIIKSNNIFSFYTQFLRGSNLRDQICGVKKMLNDYIVIVWGRSELDSFVKFAFACLSAGRMLTIDLPNIDVDDTEPLLNALDSLVPRIGSELSNRKLKFLIYANENNGKSQMKLLERLRSQISLKFKKFNYIFHTESKEWLIQTIINEDTGFHDDITDNDIYNTISEVR

The variants in the assay derive from B1. Conditions: with h2a1_yeast HTA1, P04911.
Chain of h2a1_yeast HTA1, P04911 (P04911 whole entry): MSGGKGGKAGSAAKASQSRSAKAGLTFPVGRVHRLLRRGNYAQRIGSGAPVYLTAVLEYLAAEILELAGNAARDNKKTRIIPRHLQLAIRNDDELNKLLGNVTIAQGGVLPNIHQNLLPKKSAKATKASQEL
Turning to K1088M, the “effect of a mutation on the interaction” value was “disrupting interaction”.
